Measurements as given in publication PMC5604497.

Target: leucine zipper domain of the transcription factor GCN4 from Saccharomyces cerevisiae (fusions with T18 and T25) (Saccharomyces cerevisiae)
Assay: two-hybrid; bacterial two-hybrid (BACTH), T18 and T25 fusions co-overexpressed in adenylate-cyclase-deficient E. coli BTH-101, LB pH 7, aerobic, OD600 ~0.6; ß-galactosidase activity (ONPG) in Miller units, three biological replicates; background with empty vectors about 400 MU

- ß-galactosidase activity: 1200 MU
Substance: leucine zipper domain of the transcription factor GCN4 from Saccharomyces cerevisiae (fusions with T18 and T25) (domain or fragment)
